Laboratory results from patent publication US20260049138A1 (Chugai, published 2026).

Molecular target: T1, CD3ε homodimer protein (human, UniProt P07766 23-126, limits assumed)
T1 construct: also called CD3 (CD3ε)
Assay: SPR Biacore T200, CD3ε homodimer on chip;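 note: Light-chain single-residue variant antibodies injected over amine-coupled CD3ε homodimer on a CM4 chip at 25 °C, bound amount divided by that of the GLS3000-containing antibody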

T1 sequence (P07766 23-126 limits assumed): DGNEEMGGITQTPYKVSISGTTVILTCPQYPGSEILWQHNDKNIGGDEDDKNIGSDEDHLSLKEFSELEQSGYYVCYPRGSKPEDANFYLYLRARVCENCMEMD

B1: GLS3000 S27aY one-arm antibody (antibody, human IgG1, kappa, L234A L235A, N297A, name in Kabat numbering)
heavy: QVQLVESGGGVVQPGRSLRLSCAASGFTFSNAWMHWVRQAPGKGLEWVAQIKAKSNNYATYYAESVKGRFTISRDDSKNSLYLQMNSLKTEDTAVYYCRYVHYGAYYGVDAWGQGTTVTVSSASTKGPSVFPLAPSSKSTSGGTAALGCLVKDYFPEPVTVSWNSGALTSGVHTFPAVLQSSGLYSLSSVVTVPSSSLGTQTYICNVNHKPSNTKVDKKVEPKSCDKTHTCPPCPAPEAAGGPSVFLFPPKPKDTLMISRTPEVTCVVVDVSHEDPEVKFNWYVDGVEVHNAKTKPREEQYASTYRVVSVLTVLHQDWLNGKEYKCKVSNKALPAPIEKTISKAKGQPREPQVYTLPPSRCELTKNQVSLSCAVKGFYPSDIAVEWESNGQPENNYKTTPPVLDSDGSFFLVSKLTVDKSRWQQGNVFSCSVMHEALHNHYTQKSLSLSPDYKDDDDK
chain: EPKSSDKTHTCPPCPAPELLGGPSVFLFPPKPKDTLMISRTPEVTCVVVDVSHEDPEVKFNWYVDGVEVHNAKTKPREEQYNSTYRVVSVLTVLHQDWLNGKEYKCKVSNKALPAPIEKTISKAKGQPREPQVCTLPPSRDELTKNQVSLWCLVKGFYPSDIAVEWESNGQPENNYKTTPPVLDSDGSFFLYSKLTVDKSRWQQGNVFSCSVMHEALHNRYTQKSLSLSP
light: DIVMTQSPLSLPVTPGEPASISCRSSQYLVHSNRNTYLHWYQQKPGQAPRLLIYKVSNRFSGVPDRFSGSGSGTDFTLKISRVEAEDVGVYYCGQGTQVPYTFGQGTKLEIKRTVAAPSVFIFPPSDEQLKSGTASVVCLLNNFYPREAKVQWKVDNALQSGNSQESVTEQDSKDSTYSLSSTLTLSKADYEKHKVYACEVTHQGLSSPVTKSFNRGEC
  ratio of amount bound vs unaltered GLS3000: 1.1

B2: GLS3000 S27eA one-arm antibody (antibody, human IgG1, kappa, L234A L235A, N297A, name in Kabat numbering)
heavy: QVQLVESGGGVVQPGRSLRLSCAASGFTFSNAWMHWVRQAPGKGLEWVAQIKAKSNNYATYYAESVKGRFTISRDDSKNSLYLQMNSLKTEDTAVYYCRYVHYGAYYGVDAWGQGTTVTVSSASTKGPSVFPLAPSSKSTSGGTAALGCLVKDYFPEPVTVSWNSGALTSGVHTFPAVLQSSGLYSLSSVVTVPSSSLGTQTYICNVNHKPSNTKVDKKVEPKSCDKTHTCPPCPAPEAAGGPSVFLFPPKPKDTLMISRTPEVTCVVVDVSHEDPEVKFNWYVDGVEVHNAKTKPREEQYASTYRVVSVLTVLHQDWLNGKEYKCKVSNKALPAPIEKTISKAKGQPREPQVYTLPPSRCELTKNQVSLSCAVKGFYPSDIAVEWESNGQPENNYKTTPPVLDSDGSFFLVSKLTVDKSRWQQGNVFSCSVMHEALHNHYTQKSLSLSPDYKDDDDK
chain: EPKSSDKTHTCPPCPAPELLGGPSVFLFPPKPKDTLMISRTPEVTCVVVDVSHEDPEVKFNWYVDGVEVHNAKTKPREEQYNSTYRVVSVLTVLHQDWLNGKEYKCKVSNKALPAPIEKTISKAKGQPREPQVCTLPPSRDELTKNQVSLWCLVKGFYPSDIAVEWESNGQPENNYKTTPPVLDSDGSFFLYSKLTVDKSRWQQGNVFSCSVMHEALHNRYTQKSLSLSP
light: DIVMTQSPLSLPVTPGEPASISCRSSQSLVHANRNTYLHWYQQKPGQAPRLLIYKVSNRFSGVPDRFSGSGSGTDFTLKISRVEAEDVGVYYCGQGTQVPYTFGQGTKLEIKRTVAAPSVFIFPPSDEQLKSGTASVVCLLNNFYPREAKVQWKVDNALQSGNSQESVTEQDSKDSTYSLSSTLTLSKADYEKHKVYACEVTHQGLSSPVTKSFNRGEC
  ratio of amount bound vs unaltered GLS3000: 1.03
